Reference: the supplement of paper PMC7877785
± gives the uncertainty stated by the source.

Assay: self-splicing fitness, log relative to wild type (ln ratio); higher = more splicing; Tetrahymena group I intron in knt gene, E. coli kanamycin selection, DiMSum; sequences stand for … in CUCUCU…GGAGGGAAAAGUUAUCAGGCAUGCACCUGGUAGCUAGUCUUUAAACCAAUAGAUUGCAUCGGUUUAAAAGGCAAGACCGUCAAAUUGCGGGAAAGGGGUCAACAGCCGUUCAGUACCAAGUCUCAGGGGAAACUUUGAGAUGGCCUUGCAAAGGGUAUGGUAAUAAGCUGACGGACAUGGUCCUAACCACGCAGCCAAGUCCUAAGUCAACAGAUCUUCUGUUGAUAUGGAUGCAGUUCACAGACUAAAUGUCGGUCGGGGAAGAUGUAUUCUUCUCAUAAGAUAUAGUCGGACCUCUCCUUAAUGGGAGCUAGCGGAUGAAGUGAUGCAACACUGGAGCCGCUGGGAACUAAUUUGUAUGCGAAAGUAUAUUGAUUAGUUUUGGAGUACUCGUGGUCG
Summary of the method: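 DiMSum derived fitness as the error-weighted combination of fold changes across replicates, kanamycin versus no kanamycin, normalised to wild type. E. coli BL21(DE3) held the library, which randomised all eight P1ex-region intron nucleotides within the knt kanamycin-resistance gene on pET-22b(+). Six replicate transformations grew overnight at 37°C or 30°C on LB agar with or without 25 μg/mL kanamycin, also containing 100 μg/mL carbenicillin, 50 μM IPTG and 0.2% rhamnose, and pooled colonies were amplicon-sequenced on an Illumina HiSeq 2500.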

Sequence | self-splicing fitness (ln) (37 °C) | self-splicing fitness (ln) (30 °C)
UAGGAGCAAUAUUACGCAGU | -1.96 ± 0.28 | –
UGCGAGCAAUAUUACGCACA | -2.16 ± 0.28 | -1.31 ± 0.22
CCUUAGCAAUAUUACGUGUG | -0.595 ± 0.078 | -1.61 ± 0.063
UAUGAGCAAUAUUACGGAGA | -2.34 ± 0.27 | -2.48 ± 0.28
ACAGAGCAAUAUUACGGGAA | -2.98 ± 0.34 | -2.54 ± 0.19
UCUAAGCAAUAUUACGAAAA | -1.34 ± 0.29 | –
AGAAAGCAAUAUUACGGGCG | -0.328 ± 0.12 | -0.886 ± 0.1
GUGAAGCAAUAUUACGCGCU | -1.47 ± 0.13 | -2.31 ± 0.16
UGGCAGCAAUAUUACGGGGA | -2.03 ± 0.14 | -2.26 ± 0.13
CUAAAGCAAUAUUACGUAAG | -0.575 ± 0.085 | -0.149 ± 0.07
AGACAGCAAUAUUACGAAAU | -1.43 ± 0.14 | -2.88 ± 0.17
UCGUAGCAAUAUUACGGGUC | -4.36 ± 0.46 | -3.02 ± 0.26
GGCGAGCAAUAUUACGAUGU | -1.53 ± 0.2 | -3.69 ± 0.32
AGAAAGCAAUAUUACGGUAA | -0.265 ± 0.14 | -2.66 ± 0.25
GGGCAGCAAUAUUACGUGUC | -2.53 ± 0.2 | -3.82 ± 0.17
CGGUAGCAAUAUUACGGUUG | -0.0229 ± 0.093 | -0.837 ± 0.069
CGGAAGCAAUAUUACGGGCG | -0.481 ± 0.12 | -0.796 ± 0.091
GAGAAGCAAUAUUACGGCUA | -0.0778 ± 0.1 | 0.0865 ± 0.09
UUACAGCAAUAUUACGGAAC | -1.88 ± 0.42 | -2.88 ± 0.26
GAAUAGCAAUAUUACGAAUA | -1.57 ± 0.22 | -1.07 ± 0.17
ACCAAGCAAUAUUACGGCGC | -0.413 ± 0.11 | 0.119 ± 0.092
CAACAGCAAUAUUACGGGCG | 0.154 ± 0.062 | -0.0253 ± 0.049
CCUCAGCAAUAUUACGAGUU | -1.11 ± 0.093 | -2.31 ± 0.1
GAUAAGCAAUAUUACGAAUG | -0.794 ± 0.15 | -1.28 ± 0.14

Sequence | self-splicing fitness (ln) (37 °C) | self-splicing fitness (ln) (30 °C)
GUACAGCAAUAUUACGAAAA | -2.31 ± 0.25 | -1.66 ± 0.19
GGUAAGCAAUAUUACGGAGA | -2.8 ± 0.22 | -3.47 ± 0.23
CGUCAGCAAUAUUACGCCUU | -1.94 ± 0.2 | –
CGGGAGCAAUAUUACGCCUA | -2.14 ± 0.19 | -2.84 ± 0.27
UUGCAGCAAUAUUACGCGUU | -1.94 ± 0.18 | -2.41 ± 0.21
UGUCAGCAAUAUUACGGGAU | -3.32 ± 0.19 | -3.26 ± 0.15
UACCAGCAAUAUUACGAUUG | -1.35 ± 0.079 | -2.62 ± 0.084
ACACAGCAAUAUUACGUGAC | -2.05 ± 0.11 | -4.1 ± 0.13
GGGAAGCAAUAUUACGCGAU | -0.798 ± 0.17 | -3.63 ± 0.27
CCUAAGCAAUAUUACGAAUG | -2.23 ± 0.16 | -1.63 ± 0.14
ACCAAGCAAUAUUACGGUAG | -2.5 ± 0.14 | -4.33 ± 0.16
CAGGAGCAAUAUUACGCAAA | – | -4.2 ± 0.46
CACCAGCAAUAUUACGACGC | -1.39 ± 0.16 | -3.22 ± 0.19
CCGCAGCAAUAUUACGAGAU | -2.2 ± 0.19 | -4.09 ± 0.42
AACAAGCAAUAUUACGUCAU | -1.59 ± 0.082 | -2.35 ± 0.075
UUGCAGCAAUAUUACGGGAA | 0.101 ± 0.11 | -1.51 ± 0.12
UGAUAGCAAUAUUACGUUCA | 0.075 ± 0.093 | -0.43 ± 0.087
CACAAGCAAUAUUACGGCUA | -1.26 ± 0.11 | -2.02 ± 0.12
CCCAAGCAAUAUUACGUGUC | -2.72 ± 0.18 | -4.25 ± 0.26
UCGAAGCAAUAUUACGGGCG | -0.219 ± 0.1 | 0.0324 ± 0.093
AGCUAGCAAUAUUACGAAAG | -2.77 ± 0.25 | -3.5 ± 0.19
UGAAAGCAAUAUUACGUUUG | -0.682 ± 0.11 | -2.94 ± 0.13
CUCCAGCAAUAUUACGGAGC | -2.69 ± 0.2 | -1.83 ± 0.12
UUACAGCAAUAUUACGUGAA | -0.338 ± 0.066 | -1.16 ± 0.054
